Experimental data reported in a protein production outcome set (Wang et al. 2014).

Test: label from the status in PepcDB records

Row | Sequence | protein production
1 | KGSQVKLEVISDEKGAKPRTITLTREQIRLEDRAVKLTEKVINGDKIAILDIPSFYVGLTNDVKTQLQKVAKDNVSALVIDLRGNGGGALTEAIALSGLFIPSGPVVQVRDNNGRVRQDYDRDDVVYYKGPLVVIVNRFSASASEIFAAAMQDYGRALIVGEQTFGKGTVQQYRSLTRVYDQMLSPDWPSLGSVQYTIQKFYRINGGSTQLKGVTPDLLLPSFDNSEMGESNEDNALPW | failed
2 | KGVVTIEQIVDTLPDRGRSCWHLGAVWALSQFQENELFLGMYPEEHFIEKPVKEAMARFRKNLEAIVSVIAERNKKKQLPYYYLSPDRIPNSVAI | failed
3 | KHSSTQQRLSRMLHEDGFVMHYQLLQSVVEKDVISFEALLRYQDREGNLCPPTFISDFQLLNMMPTLDKLVIDKVLTDMQKMDLNEDRRVAINISVASIEEHGFAEHVIDRLKFFSIPPHWLEIEITEEAILSDNHNLLSTLEILKSHGIKIAMDDFGTGYASFPHLLKYPFDKIKLDRSLLLDASTTKGKQLYQLIAQMGDVANCEVVAEGVETEDEFKFVAECGVDKVQGFLIARP | failed
4 | KIERDKAERAKKYGGSVGSQPPPVAPEPGPVPSSPSQEPPTKREYDQCRIQVRLPDGTSLTQTFRAREQLAAVRLYVELHRGEELGGGQDPVQLLSGFPRRAFSEADMERPLQELGLVPSAVLIVAKKC | failed
5 | KIGYGKANPTTRLWVGGLGPNTSLAALAREFDRFGSIRTIDHVKGDSFAYIQYESLDAAQAACAKMRGFPLGGPDRRLRVDFAK | not failed
6 | KKAKKVRFYRNGDRYFKGIVYAISPDRFRSFEALLADLTRTLSDNVNLPQGVRTIYTIDGLKKISSLDQLVEGESYVCGSIEPFKKLEYTKNVNPNWSVNVKT | not failed
7 | KKLANADANNDSRVYVAVDGDIGVGYATMKVFMLSNDEYKILSGKYPRQVPVVMLDQIAVDKAYQGKGIGKRLMRKVLEATVLVNELAAAKGLALWAHPRAKDFYESLGFEAIPDATKQVQDVELTLMFIHVETILDALK | failed
8 | KKLCGYLSKFGGKGPIRGWKSRWFFYDERKCQLYYSRTAQDANPLDSIDLSSAVFDCKADAEEGIFEIKTPSRVITLKAATKQAMLYWLQQLQMKRWEFHNSPPAP | not failed
9 | KLIGITGMPGSGKSAITKLAEKYKIVVVSMGDVVRYETLKQGMPLNPENVGNTAVKLREIYGKEAIAVPCLNYVNEKYNNEDFVIIEGIRSIYEVNYIKKHAELDIIAIHSSPKTRFERLSGRNREDDSNDWNTFVERDERELNFSIGRVISLADYMVVNEGNYMDFVNDLENTFKKIINV | failed
10 | KMLDEKFYSKLLGEELDLIICLPPDFSPLYKYPLFIVQDGKDYFQFGKLARHSEELAVNEQIQKAIFIGIPYKTVMDRREKYHPDGEQNEAYIRFLAFELVPYLEERFPSFQMPTSRFL | not failed
11 | KNTGSKHNFLNHGLPLNLAIKPYLALKGSVDFPAENGVQNTESTQEKREIGDEENSAKFPIGRRDFDMLRCMLGRVYRPCWQV | failed
12 | KNVVHQLSVTLEDLYNGATRKLALQKNVICDKCEGRGGKKGAVECCPNCRGTGMQIRIHQIGPGMVQQIQSVCMECQGHGERISPKDRCKSCNGRKIVREKKILEVHIDKGMKDGQKITFHGEGDQEPGLEPGDIIIVLDQKDHAVFTRRGEDLFMCMDIQLVEALCGFQKPISTLDNRTIVITSHPGQIVKHGDIKCVLNEGMPIYRRPYEKGRLIIEFKVNFPENGFLSPDKLSLLEKLLPERKEVEETDEMDQVELVDFDPNQERRRHYNGEAYEDDEHHPRGGVQCQTS | failed
13 | KNYDLSDLPGPPSKPQVTDVTKNSVTLSWQPGTPGTLPASAYIIEAFSQSVSNSWQTVANHVKTTLYTVRGLRPNTIYLFMVRAINPQGLSDPSPMSDPVRTQD | not failed
14 | KPQEGIGARCRRALKDLPLTNLSRLLQCELAEGKALRWGADSLEPAAVVGLNSLGSLVWAPGQPSRWPVPLLLLGGTLDLITPPLDEQLGVFSALASHPSSRVVVVEGASHFSPIRVGEPMA | failed
15 | KQFPGYPEFVLVEIETQRGCPKAMGIGGCSFCTEPVRYKVVENRPQEYVAQEVETFYNMGIRHFRIGRQSCIFSYKARPNGRVPIPKPEEVEKLFKAVRLAAPNVKTLHVDNANPAVIANYPEESRRIAKAIIEYGTPGNVVAFGLETADPKVARINNLNATPEETYEAVKIINEVGGRRGYNGLPWLLPGINIIFGLPGETKRTYELTYEFLKKILDDGLMVRRINIRQVVVFPGTPLWNMRDKVKTEKHKALIEHYRHKIRHEIDLPMLKRVVPVG | failed
16 | KSEAGAGKKVQVEFVSANPTGPLHIGHGRGAAIGDTICRLLAAIGWDVTREFYYNDAGQQIANLALSVQARCLGVEPGGPLWPTDGYQGEYIKDVARSYLNRETVDAGDQHVTAAGDPHDVEAIRRFAVAYLRREQDQDLRAFDVGFDVYFLESSLYAEGRVDDVVQRIIAKGHAYEQDGALWLRTTEFGDDKDRVMRKSDGSYTYFVPDVAYHLNKWERGFIRVVNEQGADHHSTITRVRAGLQALDAGIPKGWPEYVLHQMVTVMRGGEEVKISKRAGSYVTLRDLVDEVGRDATRFFFLMRKPDSQLVFDIDLAKQQTLENPVYYVQYAHARICSIFENAADKGVVPPT | failed
17 | KSIRLAKEKESQADYISTYVEWQYIDKNITQCFDKMTNMKLEVAWKAKKKDTVVQIHNQDFTVDLSTNTATAPQGQTFTVQRLVKA | not failed
18 | KSLTLVLHRDSGSLGFNIIGGRPSVDNHDGSSSEGIFVSKIVDSGPAAKEGGLQIHDRIIEVNGRDLSRATHDQAVEAFKTAKEPIVVQVLRRT | not failed
19 | KTITGFYPLNQGHDALLARTSLIESAQKSLDLQYYIYRGDETSQLITWRLYEAAKRGVRIRLLLDDMQKRNDNVMAALNAHPNIEIRLFNPHQYRSARIFALTSDFERLNRRMHNKSLIADSVSAIVGGRNIGNEYFSFESEVEFGDFDLLLYGEAVQQTADQFDLYWNSVHAVPMEWISPQSQSVSDAAIQKQVTKLNLQEKFSSGRYDFTALDMYQ | failed
20 | KTMKMRKFTIADASLERSPGQEADISVGNLVDERHGGPITIGYGRYAPGQSLTETMAVDDVMIVLEGRLSVSTDGETVTAGPGEIVYMPKGETVTIRSHEEGALTAYVTYPHWRPAHA | not failed

Row | Sequence | protein production
21 | KTNFKIVLKEDSELLQEVVVTGYGGKVSRSKLTNSISTVNPQMLDKGIYTNPSQALSGSVPGLKVSLTSGNPTSSPKIILRGGTNFDGSGGPLVVVDGQLRDNFDDINPQDIASMDVLKDAGATAIYGARASNGVILITTKSGKAGH | failed
22 | KVDKKTYKNLIVELQQRMREIQFALYERKIPLVLVFEGMDAAGKGGNIKRIREKLDPTGYEVNGISAPTDVELKHHYLWRFAKKMPKSGHIEIFDRSWYGRVLVERVEGFASQNEWQRASDEINQFEKMWTDEGTIILKFFLCLDKDEQLKRFKDRENNPDKQWKITEEDWRNREKWDEYLEASHDMIESTNTSYAPWYIVPADHKKTSRIEVLKTIIRKCEEVLWGVKTY | failed
23 | LAAWHLSSADYIADTLRLQGMTARGQVLDFGGGIGTHALSAAALPQVDHVWFVDLNPHNQAFVEQRAAALGLSDKLSVHRDLESTGEVRFDTVVCLDVLEHLPDPSAQLQAFHQRMASDATALLNWYFFKGHDGEYPFHFDDPQ | failed
24 | LADVEARARIAIDAAGMGTWDLRPQEGLLLWDDRCKTLFGVPTSTEMSLEVFYAGIYPDDLPLVREAVEHAMRPESDGHYRVEFRIAQPNGLEPRWLLSSGQSQFVDDQCVRFSGVLQDIHAQRQATQALRQLNEMLGER | not failed
25 | LDTLRRYHRQTLQDLPMGVCSLAKDQEVLMWNRAIEELTGVGAQKVVGSRLSALPEPWKGLLERFIDAPDEHLHKQRLVYDGHTRWLNLHKAAIEEPLAPGNSGLVLLVEDLTETQLLEDKLVHSERLASIGRLAAGVAHEIGNPITGI | not failed
26 | LEEALGILDTQRVEIAKRRHLNAVLRHIPAGVAAVDNQGVVQSLNPALAQLLDLPVSAALGRPLQQLCPELDLQQALQEGTGEENRVMRLGSHAVVSNLLPILENGERTGLVLTCQDITVVQRADQRIR | failed
27 | LEMKGKRMSVTAVMRELEKEENLYRRSGGGITLSGGEPLAQPEFARELLKACKAKGWHTAIETSGFTTKAVIDEVFPYVDLALTDIKAIDPEIHERNTGVNNRVILENLLRISFLTKVVVRIPVIPGVNDNSQEIHNIAEFARLMQNVDTIHLLPYHSFGENKYNLLGRQYPMGDTKSIEESQMAELKAMVESLGFNCHIGG | failed
28 | LETERNRYKWLFENAVHGIFQASLQAGMRAANPALARMLGYQDPQEVLFSLADLAGNLFVGGAGELAAIGEQLQNQRSLLGYETQLRRKDGSSIDVLMNLLLKPDQDGLVEGFVADITERKLAQQHLEQLNDQLEQR | failed
29 | LETSSYLNVLVNSQWKSRWCSVRDNHLHFYQDRNRSKVAQQPLSLVGCEVVPDPSPDHLYSFRILHKGEELAKLEAKSSEEMGHWLGLLLSESG | not failed
30 | LGRITQHIAIKQDITEQVHRFNQLKISEERYRNLMNAVADGIFIHNLQGAFLEVNEAACLSLNYSREELINSYVWDIEVGFSQESLNQLWENVQKGPINTEGMHRRKDGTTFPVDVRLAVFNATGEKLVLAIVRDI | failed
31 | LHARLLQQESIINALPFAVFIRTAAGELAVYNSHFAEAHQDKLNDLLNHNNEPANWPMTSPLDREIDKYCRQVLTHRKPQMVDLSLEINGELRDIFLWIIPLDNAERSLFGGWLDISQRKTVERQLEAARVEAESANRTKSTFLATISHELRTPMYAIMGLL | failed
32 | LHRIVDKMHDTSTGIRPSPNMEQGSTYKKTFLGSSLVDWLISSNFAASRLEAVTLASMLMEENFLRPVGVRSMGAIRSGDLAEQFLDDSTALYTFAESYKKKVSSKE | not failed
33 | LICLLSSLLSVQAAPGPHPHWSVGFHEMSFLDPLDRQPMRAIAFYPSTGIEHGSQLEGYQIAASRDAKIAIGRFPMLMLSHGNTGTPLALHDLATSLARKGFVVVAVIHPGDNSKDHSRLGTLSNLYGRPIQISEAITATLGDPMLSPFVNADQVGVIGYSAGGETALILSGATPDLDRLRRYCQERPNDRDACNTQGELIVDRDDLQPVADPRVHALMLLAPLSLKFGRQTLAGVHVPVLLYSGDGDQLVALDKNAAALARKLPVAPDFKLLAGAGHFVFMAPCSAQQMAAMPALCTDADGVDREDIHRNLILEAGNFFA | failed
34 | LIHKYKNFVRAKSRSYFLVGADREDIVQEGMIGLFKAIRDYKEDKLSSFKAFAELCITRQIITAIKTATRQKHIPLNSYVSLDKPIYDEESDRTLLDVISEAKVTDPEEMIISQEEYTDIESKISELLSDLERKVLSLYLDGRSYQEISEQLNRHVKSIDNALQRVKRKLERYMEMRESTTLNS | not failed
35 | LKASGVQAQMAKQQEQDPTNLYISNLPLSMDEQELENMLKPFGQVISTRILRDSSGTSRGVGFARMESTEKCEAVIGHFNGKFIKTPPGVSAPTEPLLCKF | not failed
36 | LKDIETACKLLNITADPMDWSPSNVQKWLLWTEHQYRLPPMGKAFQELAGKELCAMSEEQFRQRSPLGGDVLHAHLDIWKSAA | not failed
37 | LKRDFIILGNGPRLQNSTYQCKHCDSKLQSTAELTSHLNIHNEEFQKRAKRQERRKQLLSKQKYADGAFADFKQE | not failed
38 | LLALWVSAGELMAASKGAAGFTKATQEVSSYQTPVSNLMKAIAAVIVLVGAFNVYFKMQNGDQDVKKTIMLTIGGCIAFIALSEALPLFF | failed
39 | LLARALYDNCPDCSDELAFSRGDILTILEQHVPESEGWWKCLLHGRQGLAPANRLQIL | not failed
